The values below come from patent US20250129146A1, “COMBINED CANCER THERAPY WITH AN EPITHELIAL CELL ADHESION MOLECULE (EPCAM) INHIBITOR AND A WNT INHIBITOR” (ACADEMIA SINICA, priority 2021, published 2025).

Common to all, as to format: cell-based, human
The subject of one test is HT29 and SW620 cells. Nature of the test: Colony formation assay. As to conditions: for colony formation capacity: SW620 cells, exogenous Wnt3A, EpEX or combination. How it is done: Cells were seeded in 12-well plate (5×10^3 cells per well) and treated with 20 µg/mL mEpAb2-6, hEpAb2-6 or MT201 (Produced in house) or 400 ng/mL LGK974 (MedChemExpress) or combination as indicated in which case the elements were directly added to the culture medium. The medium along with the treatment component were changed in every alternating day and the cells were allowed to grow for 10 days. On the tenth day, cells were washed and fixed with 4% paraformaldehyde and further stained with 1% crystal violet for 30 min. Colonies were washed 3 times with PBS, and images were taken. Furthermore, to measure colony density, the wells were incubated with 0.5% SDS shaking for 2 h at RT. The supernatants were collected, and the absorbance of the solution was taken at 570 nm using a microplate reader.

The next test relates to active β-Catenin. The test can be described thus: Nuclear translocation of β-Catenin (immunofluorescence staining; cell fractionation with western blot). Here is the method:
Cells (1×10^6) were seeded overnight and further allowed to grow in serum free conditions. Then cells were further treated with 20 μg/mL mEpAb2-6 or hEpAb2-6 or MT201 for 6 h or with 400 ng/mL LGK974 (MedChemExpress) for 9 h or combination as indicated. Samples were fractioned into cytosol and nuclear extracts using nuclear/cytosol fractionation kit (Biovision) according to the manufacturer's protocol. The fractions were then subjected to western blot analysis.
(§1) For western blotting, cells were extracted using radioimmunoprecipitation assay (RIPA) buffer [(0.01 M sodium phosphate, pH 7.2), 150 mM NaCl, 2 mM EDTA, 50 mM NaF, 1% Nonidet P-40, 1% sodium deoxycholate, and 0.1% SDS)] containing phosphatase inhibitor (Roche) and protease inhibitor (Roche) cocktail. Equal amounts of protein were separated by SDS-PAGE and then transferred to PVDF membranes. The membranes were blocked with 3% BSA in TBST (Blocking solution) and incubated with necessary primary antibodies in the blocking solution overnight at 4° C. Membranes were then incubated with HRP-conjugated secondary antibodies in the blocking solution for 1 h at room temperature, and protein expression were detected. Antibodies used: anti-α-tubulin (Sigma), anti-EpCAM (abeam), anti-Active β-Catenin (Millipore), anti-total β-Catenin (abeam), anti-Frizzled 6 (CST), anti-Frizzled 7 (Santa Cruz Biotech), anti-LRP5 (abcam), anti-Phospho-LRP5 (abcam), anti-Phospho-LRP6 (CST), anti-LRP6 (CST) and anti-EpEX antibody EpAb3-5 (Produced in house), anti-ADAM17 (abcam), anti-phopho-ADAM17 (abcam), anti-Presenilin2 (abcam), anti-phospho-Presenilin2 (S327) (abcam), anti-phospho-Presenilin2 (S330) (abcam) and anti-Axin2 (CST).
Glass slides were used in 24-well plates and coated with 0.1% gelatin. Further, 3×10^4 cells were seeded in serum free medium overnight. Cells were treated with 20 μg/mL EpAb2-6 for 6 h, or 400 ng/mL LGK974 (MedChemExpress) for 9 h or the combination. Cells were washed using ice-cold PBS and fixed with 4% paraformaldehyde for 15 min at RT and washed with ice-cold PBS. Further, cells were permeabilized using 0.1% triton-X in PBS for 20 min and subsequently washed with PBS. Cells were blocked with 3% BSA in PBS for 1 h at RT. Next, cells were treated with primary antibody anti-Active β-Catenin (Millipore) overnight. Then, cells were washed and treated with secondary antibody in 3% BSA containing PBS along with DAPI for 1 h at RT. Samples were then washed in PBS five times and mounted for microscopy. Nuclear β-Catenin intensities were calculated using IMARIS (Oxford Instruments) software.
(Immunoblotting shows a protein as a band on a membrane.)

The test system of another test is TCF. The test can be described thus: TCF activity (TOP-Flash TCF luciferase reporter). Here is the method: Cells were plated at 5×10^3 cells per well and grown overnight in 12-well plates. Then, cells were transiently transfected with TOP-Flash TCF reporter plasmid (Millipore) using poly-jet transfection reagent (SignaGen). At 48 h post transfection, cells were treated with 20 µg/mL Anti-EpCAM EpAb2-6 (Produced in house) or MT201 (Produced in house) for 6 h or 400 ng/mL LGK974 (MedChemExpress) for 9 h or the combination, as indicated. In addition, cells were treated with EpEX (Produced in house by Expi293 Expression System) or recombinant Wnt3A (R & D systems) or the combination for 8 h. Finally, cells were lysed, and the luciferase assay was performed.
The cells were seeded in 24-well plates (1×10^4 cells/well) and incubated at 37° C. for 24 h. The culture media were refreshed, and the cells were transfected with respective reporter plasmids (TCF reporter or Wnt receptor promoter reporter) by PolyJET (SignaGen). The transfected efficiency was normalized by co-transfected with pRL-TK (20 ng) as an internal control. Additional treatments were conducted as indicated. Firefly luciferase and Renilla luminescence were measured 48 h post-transfection using the Dual-Glo Luciferase Assay System (Promega), according to the manufacturer's recommendations.
On the technique in general: A reporter such as luciferase makes a cellular process visible.

For test [1], the system named is HCT116, HT29 and SW620 cells. The test can be described thus: Tumorsphere assay. The note with it: for sphere formation capacity: SW620 cells, exogenous Wnt3A, EpEX or combination. How it is done: Cells were seeded in ultra-low adherent 6-well plates (5×10^4 cells per well) or 24-well plates (1×10^3 cells per well) and maintained in DMEM/F-12 supplemented with B27. Further, cells were treated with 20 μg/mL mEpAb2-6, hEpAb2-6 or MT201 (Produced in house), or 400 ng/mL LGK974 (MedChemExpress) or the combination, by direct addition to the culture medium. The entire culture medium, including the treatment component, was changed in every other day. Cells were cultured for 10 days, and on 10th day, spheres were counted and photographed under the microscope.

The test system of test [2] is Wnt receptors (FZD6/7, LRP5/6). The test can be described thus: Wnt receptor protein and mRNA expression (western blot, qPCR). The note with it: HCT116 cells. Here is the method:
as §1
(§2) Total RNA was extracted using TRI reagent and 5 μg of the total RNA was further reverse-transcribed using oligo (dT) primer with reverse transcriptase. Quantitative real time RT-PCR (qPCR) was performed on cDNA using the Light Cycler 480 SYBR Green-I Master kit and the LightCycler480 System. The gene expression levels of each sample were normalized to the expression levels of glyceraldehyde 3-phosphate dehydrogenase (GAPDH) or β-actin.

A further test concerns LRP5/6. The test can be described thus: Phosphorylation of LRP5/6 (western blot). Here is the method: as §1
The next test deals with Oct4, Sox2 and c-Myc. The test can be described thus: Stemness (pluripotency) factor expression (western blot, qPCR). The note with it: HT29 cells. How it is done: as §1, §2
[3] abbreviates: EpCAM-knockout cells, exogenous EpEX, LGK974 or both.
[4] abbreviates: wild-type HCT116 cells, EpEX, recombinant Wnt3A or both.
[5] abbreviates: EpEX, Wnt3A or combination, protein and mRNA level.
Setting [6] is: wild-type SW620 and HCT116 cells, EpEX, recombinant Wnt3A or the combination for 8 h.
[7] abbreviates: HCT116 cells, exogenous EpEX, Wnt3A or combination.

“MT201: adecatumumab, a human anti-EpCAM antibody that was subjected to clinical trials [reference compound]”: in the test with HT29 and SW620 cells (comparison of EpAb2-6 with MT201, 20 g/mL), the “ability to inhibit colony formation” value was “shows no activity”. In addition, the “nuclear translocation of β-Catenin” value in the test on active β-Catenin (HT29 cells, 20 μg/mL hEpAb2-6 or MT201 for 6 h) is given as “did not show any significant effects”. Moreover, in the test on TCF (HT29 cells, 20 µg/mL antibody for 6 h), the TCF activity entry is “did not show any significant effects”. Besides, the “ability to inhibit sphere formation” value in test [1] (comparison of EpAb2-6 with MT201, 20 μg/mL) is given as “shows no activity”.

B1: EpEX: extracellular domain of EpCAM, produced in house by Expi293 Expression System (protein)
chain: QEECVCENYKLAVNCFVNNNRQCQCTSVGAQNTVICSKLAAKCLVMKAEMNGSKLGRRAKPEGALQNNDGLYDPDCDESGLFKAKQCNGTSMCWCVNTAGVRRTDKDTEITCSERVRTYWIIIELKHKAREKPYDSKSLRTALQKEITTRYQLDPKFITSILYENNVITIDLVQNSSQKTQNDVDIADVAYYFEKDVKGESLFHSKKMDLTVNGEQLDLDPGQTLIYYVDEKAPEFSMQGLKAGVIAVIVVVVIAVVAGIVVLVISRKKRMAKYEKAEIKEMGEMHRELNA
As to B1, in the test on HT29 and SW620 cells (setting [3]), the colony formation result was “reverted to wild-type levels”. Moreover, the colony formation capacity entry in the test on HT29 and SW620 cells is recorded as “enhanced”. Moreover, the “nuclear accumulation of β-Catenin” value in the test on active β-Catenin (shEpCAM or KO-EpCAM HCT116 cells treated with exogenous EpEX) was “significant increase in nuclear accumulation of β-Catenin”. In the test with active β-Catenin (setting [4]), the “nuclear translocation of β-Catenin” value is reported as “could increase”. Moreover, the “expression of Wnt receptors” value in test [2] (setting [5]) is recorded as “upregulated expressions of Wnt receptors”. The TCF activity result in the test on TCF (EpEX-treated EpCAM-knockdown and knockout HCT116 cells) is “significantly rescued the phenomenon”; in the test with TCF (setting [6]), “could increase”. Moreover, the tumorsphere formation result in test [1] (setting [3]) is “reverted to wild-type levels”. For the same molecule, the sphere formation capacity result in test [1] is given as “enhanced”. Further, the LRP5/6 phosphorylation result in the test with LRP5/6 (setting [7]) is listed as “increased LRP5/6 phosphorylation”. In the test on Oct4, Sox2 and c-Myc (EpEX, Wnt3A or combination), the “expression of pluripotency factors” value is on record as “induced expressions of pluripotency factors”.

B2: EpAb2-6: anti-EpCAM (EpEX) neutralizing monoclonal antibody produced in mice by hybridoma; VH SEQ ID NO: 15, VL SEQ ID NO: 16 (antibody, V domains shown)
VH: VKLQESGPELKKPGETVKISCKASGYTFTDYSMHWVKQAPGKGLKWMGWINTETGEPTYADDFKGRFAFSLETSASTAYLQINNLKNEDTATYFCARTAVYWGQGTTVTVSS
VL: DIQMTQSPSSLSASLGERVSLTCRASQEISVSLSWLQQEPDGTIKRLIYATSTLDSGVPKRFSGSRSGSDYSLTISSLESEDFVDYYCLQYASYPWTFGGGTKLEIK
Consider B2, for which the colony formation result in the test with HT29 and SW620 cells (HT29 cells, 20 µg/mL EpAb2-6, 400 ng/mL LGK974 or combination, 10 days) was “decreased”. For the same molecule, the “nuclear β-Catenin” value with active β-Catenin (wild-type HCT116 cells, 20 μg/mL EpAb2-6 for 6 h, 400 ng/mL LGK974 for 9 h or combination) is “significantly decreased nuclear β-Catenin signal”. Moreover, in test [2] (EpAb2-6, LGK974 or combination), the “expression of Wnt receptors” value is “partially decrease”. In addition, the tumorsphere formation result in test [1] (HCT116 and HT29 cells, 20 μg/mL EpAb2-6, 400 ng/mL LGK974 or combination, 10 days) is given as “decreased”. Besides, in test [1] (summary statement, CRC cells, tumorsphere and colony formation), the cancer stemness properties result is “partially attenuate cancer sternness properties”. For the same molecule, the LRP5/6 phosphorylation result in the test on LRP5/6 (SW620 cells, LGK974, EpAb2-6 or combined treatment) was “could decrease LRP5/6 phosphorylation”. For the same molecule, the “expression of pluripotency factors” value with Oct4, Sox2 and c-Myc (LGK974, EpAb2-6 or combined treatment) was “decreased pluripotency factor expressions”.

B3: Wnt3A: recombinant Wnt3A (R & D systems) (protein, UniProt P56704 19-352, looked up)
Protein Wnt-3a: SYPIWWSLAVGPQYSSLGSQPILCASIPGLVPKQLRFCRNYVEIMPSVAEGIKIGIQECQHQFRGRRWNCTTVHDSLAIFGPVLDKATRESAFVHAIASAGVAFAVTRSCAEGTAAICGCSSRHQGSPGKGWKWGGCSEDIEFGGMVSREFADARENRPDARSAMNRHNNEAGRQAIASHMHLKCKCHGLSGSCEVKTCWWSQPDFRAIGDFLKDKYDSASEMVVEKHRESRGWVETLRPRYTYFKVPTERDLVYYEASPNFCEPNPETGSFGTRDRTCNVSSHGIDGCDLLCCGRGHNARAERRREKCRCVFHWCCYVSCQECTRVYDVHTCK
Turning to B3, the colony formation capacity entry in the test with HT29 and SW620 cells is “enhanced”. The “nuclear translocation of β-Catenin” value in the test with active β-Catenin (setting [4]) is given as “could increase”. For the same molecule, in test [2] (setting [5]), the “expression of Wnt receptors” value was “upregulated expressions of Wnt receptors”. In addition, the TCF activity result in the test on TCF (setting [6]) is on record as “could increase”. In test [1], the sphere formation capacity entry was “enhanced”. In addition, the LRP5/6 phosphorylation entry in the test on LRP5/6 (setting [7]) is given as “increased LRP5/6 phosphorylation”. Moreover, the “expression of pluripotency factors” value in the test on Oct4, Sox2 and c-Myc (EpEX, Wnt3A or combination) is on record as “induced expressions of pluripotency factors”.
